How the values were obtained:
[1] = system: cartilage cells; conditions: intra-articular administration, Nakazawa et al. 2002; cited from earlier work
[2] = system: rat FR-β-expressing B300-19; experiment: Flow cytometry reactivity of antibody with FR-β-expressing B300-19 cells; format: binding; conditions: 1×10^5 cells, APC-labeled anti-mouse IgM
Procedure: The resultant hybridomas were cloned by limiting dilution culture adjusted to 1 cell per well of a 96-well plate. The cloned cells were sorted by reactivity with FR-β-expressing cells. The isotype of the mouse monoclonal antibodies was determined using a mouse immunoglobulin isotyping ELISA kit (Pharmingen). As a result, the mouse anti-rat FR-β monoclonal antibodies obtained were IgM-type clone 4A67. The reactivity of these antibodies to the antigen was analyzed by flow cytometry.
(§1) After the end of reaction, stainability was measured using a flow cytometer. […], 3% thioglycolate was intraperitoneally administered to Lewis rats, and peritoneal macrophages were collected 4 days later. The negative control antibody or the 4A67 antibody was added to the macrophages adjusted to 1×10^5 for the same reaction as above, followed by further adding an anti-CD11b/c antibody labeled with phycoerythrin or the negative control antibody labeled with phycoerythrin for reaction. After the reaction, stainability was measured using a flow cytometer.

[3] = system: thioglycolate-induced peritoneal macrophages; experiment: Flow cytometry reactivity of antibody with peritoneal macrophages; format: binding, Lewis rats; conditions: Lewis rat peritoneal macrophages, co-stained anti-CD11b/c
Procedure: as §1

For `C[C@H]1C[C@@H]2[C@H]([C@@H](O)C[C@@]3(C)[C@H]2CC[C@]3(O)C(=O)CO)[C@@]2(C)C=CC(=O)C=C12` [Steroid, methylprednisolone], the “apoptotic death of cartilage cells” value [1] is listed as “causes the apoptotic death of cartilage cells”.

B1: 4A67: IgM-type mouse anti-rat FR-β monoclonal antibody (antibody, V domains shown)
VH: QIQLVQSGPELKKPGETVKISCKASGYTFTNYGMNWVKQAPGKGLKWMGWINTYTGEPTYTDDFKGRFAFSLETSASTAYLQINNLKNEDMATYFCARKGAMDYWGQGTSVTVSS
VL: QIVLTQSPAIMSASPGEKVTMTCSASSSVSYMHWYQQKSGTSPKRWIYDTSKLASGVPARFSGSGSGTSYSLTISSMEAEDAATYYCQQWSSNPPTFGSGTKLEIK
In the case of B1, the “reactivity with rat FR-β-expressing B300-19” value [2] is reported as “reacts” and the “reactivity with thioglycolate-induced peritoneal macrophages” value [3] is reported as “reacts”.

From US20140242073A1, “CARTILAGE/BONE DESTRUCTION SUPPRESSOR” (priority 2011, published 2014)
